Reference: patent publication US20250223358A1 (ANTENGENE BIOLOGICS, published 2025)

Tests used:
human CD3 [1] = target: T1, human CD3 (human, UniProt P07766 23-207; P04234 22-171; P09693 23-182); assay: FACS on Jurkat cells
T1 construct: whole, on cells; also called hCD3; CD3 on Jurkat cells

human CD3 [2] = target: T1, human CD3; assay: cell-based or functional assay

T1 sequence (P07766 23-207, chain 1 of 3): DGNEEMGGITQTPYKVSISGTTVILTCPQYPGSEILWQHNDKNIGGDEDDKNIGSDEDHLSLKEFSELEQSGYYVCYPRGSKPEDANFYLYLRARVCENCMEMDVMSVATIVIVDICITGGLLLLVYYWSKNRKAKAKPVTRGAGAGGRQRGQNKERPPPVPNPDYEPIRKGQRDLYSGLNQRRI
T1 sequence (P04234 22-171, chain 2 of 3): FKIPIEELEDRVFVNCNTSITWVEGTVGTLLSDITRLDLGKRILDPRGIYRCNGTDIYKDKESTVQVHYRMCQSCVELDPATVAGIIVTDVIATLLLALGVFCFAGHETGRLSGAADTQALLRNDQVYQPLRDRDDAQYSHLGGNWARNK
T1 sequence (P09693 23-182, chain 3 of 3): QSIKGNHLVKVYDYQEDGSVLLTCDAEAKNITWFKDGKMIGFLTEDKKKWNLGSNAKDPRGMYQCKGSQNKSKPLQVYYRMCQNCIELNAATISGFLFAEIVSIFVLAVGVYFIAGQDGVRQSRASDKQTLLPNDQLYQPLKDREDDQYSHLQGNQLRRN

EC50 (human CD3 [1]) | Top FACS signal (human CD3 [1]) | EC50_Fold change (Jurkat-NFAT-luciferase activation, normalized to ch40-C12-C10-E9) (human CD3 [2]) | Top signal_Fold change (Jurkat-NFAT-luciferase activation, normalized to ch40-C12-C10-E9) (human CD3 [2]) | Binder
0.66 nM | 2380 | 1.18 fold | 0.77 fold | hu40E9-L2H7 (antibody, V domains shown) VH: EVQLVQSGAEVKKPGSSVKVSCKASGYTFSSYVIHWVRQAPGQGLEWMGYINPGNGVIKYNEKFKGRVTLTSDKSTSTAYMELSSLRSEDTAVYYCARDSYSSYDGFAYWGQGTLVTVSS VL: EIVLTQSPDFQSVTPKEKVTITCSASSSVSYMHWYQQKPDQSPKRLIYDTSKLASGVPSRFSGSGSGTDFTLTINSLEAEDAATYYCQQWSSNPPTFGGGTKVEIK
72.9 nM | 850 | 21.3 fold | 0.73 fold | hu40E9-L2H12 (antibody, V domains shown) VH: EVQLVQSGAEVKKPGSSVKVSCKASGYTFSSYVIHWVRQAPGQGLEWMGYINPYNDVIKYNEKFKGRVTLTSDKSTSTAYMELSSLRSEDTAVYYCARDDYYSYDGFAYWGQGTLVTVSS VL: EIVLTQSPDFQSVTPKEKVTITCSASSSVSYMHWYQQKPDQSPKRLIYDTSKLASGVPSRFSGSGSGTDFTLTINSLEAEDAATYYCQQWSSNPPTFGGGTKVEIK
0.56 nM | 1760 | 2.49 fold | 0.87 fold | hu40E9-L2H9 (antibody, V domains shown) VH: EVQLVQSGAEVKKPGSSVKVSCKASGYTFSSYVIHWVRQAPGQGLEWMGYINPYSDVIKYNEKFKGRVTLTSDKSTSTAYMELSSLRSEDTAVYYCARESFYSYDGFAYWGQGTLVTVSS VL: EIVLTQSPDFQSVTPKEKVTITCSASSSVSYMHWYQQKPDQSPKRLIYDTSKLASGVPSRFSGSGSGTDFTLTINSLEAEDAATYYCQQWSSNPPTFGGGTKVEIK
28 nM | 1240 | 18.4 fold | 0.69 fold | hu40E9-L2H8 (antibody, V domains shown) VH: EVQLVQSGAEVKKPGSSVKVSCKASGYTFSSYVIHWVRQAPGQGLEWMGYINPGNDVIKYNEKFKGRVTLTSDKSTSTAYMELSSLRSEDTAVYYCARESYSSYDGFAYWGQGTLVTVSS VL: EIVLTQSPDFQSVTPKEKVTITCSASSSVSYMHWYQQKPDQSPKRLIYDTSKLASGVPSRFSGSGSGTDFTLTINSLEAEDAATYYCQQWSSNPPTFGGGTKVEIK
0.43 nM | 2020 | 3.86 fold | 0.96 fold | hu40E9-L2H14 (antibody, V domains shown) VH: EVQLVQSGAEVKKPGSSVKVSCKASGYTFSSYVIHWVRQAPGQGLEWMGYINPYNDVIKYNEKFKGRVTLTSDKSTSTAYMELSSLRSEDTAVYYCARESYYSYDGFAYWGQGTLVTVSS VL: EIVLTQSPDFQSVTPKEKVTITCSASSSVSYMHWYQQKPDQSPKRLIYDTSKLASGVPSRFSGSGSGTDFTLTINSLEAEDAATYYCQQWSSNPPTFGGGTKVEIK
51.7 nM | 796 | 98.6 fold | 0.75 fold | hu40E9-L2H15 (antibody, V domains shown) VH: EVQLVQSGAEVKKPGSSVKVSCKASGYTFSSYVIHWVRQAPGQGLEWMGYINPYNDVIKYNEKFKGRVTLTSDKSTSTAYMELSSLRSEDTAVYYCARGSYYSYDGFAYWGQGTLVTVSS VL: EIVLTQSPDFQSVTPKEKVTITCSASSSVSYMHWYQQKPDQSPKRLIYDTSKLASGVPSRFSGSGSGTDFTLTINSLEAEDAATYYCQQWSSNPPTFGGGTKVEIK
1.52 nM | 1900 | 1.95 fold | 1.12 fold | hu40E9-L4H7 (antibody, V domains shown) VH: EVQLVQSGAEVKKPGSSVKVSCKASGYTFSSYVIHWVRQAPGQGLEWMGYINPGNGVIKYNEKFKGRVTLTSDKSTSTAYMELSSLRSEDTAVYYCARDSYSSYDGFAYWGQGTLVTVSS VL: EIVLTQSPDFQSVTPKEKVTITCSASSSVSYMHWYQQKPDQSPKRLIYDTSKLASGVPSRFSGSGSGTDFTLTINSLEAEDAATYYCQQWRSRPPTFGGGTKVEIK
0.66 nM | 2490 | 23.2 fold | 1.47 fold | hu40E9-L5H3 (antibody, V domains shown) VH: EVQLVQSGAEVKKPGSSVKVSCKASGYTFSSYVIHWVRQAPGQGLEWMGYINPYNDVIKYNEKFKGRVTLTSDKSTSTAYMELSSLRSEDTAVYYCARDSYYSYDGFAYWGQGTLVTVSS VL: EIVLTQSPDFQSVTPKEKVTITCSASSSVSYMHWYQQKPDQSPKRLIYDTSKLASGVPSRFSGSGSGTDFTLTINSLEAEDAATYYCQQWRSSPPTFGGGTKVEIK

More lines, now with the values behind:

Binder | EC50 (human CD3 [1]) | Top FACS signal (human CD3 [1]) | EC50_Fold change (Jurkat-NFAT-luciferase activation, normalized to ch40-C12-C10-E9) (human CD3 [2]) | Top signal_Fold change (Jurkat-NFAT-luciferase activation, normalized to ch40-C12-C10-E9) (human CD3 [2])
hu40E9-L2H16 (antibody, V domains shown) VH: EVQLVQSGAEVKKPGSSVKVSCKASGYTFSDYVIHWVRQAPGQGLEWMGYINPYNDVIKYNEKFKGRVTLTSDKSTSTAYMELSSLRSEDTAVYYCARDSYYSYDGFAYWGQGTLVTVSS VL: EIVLTQSPDFQSVTPKEKVTITCSASSSVSYMHWYQQKPDQSPKRLIYDTSKLASGVPSRFSGSGSGTDFTLTINSLEAEDAATYYCQQWSSNPPTFGGGTKVEIK | 1.27 nM | 2010 | 6.18 fold | 1.35 fold
hu40E9-L5H8 (antibody, V domains shown) VH: EVQLVQSGAEVKKPGSSVKVSCKASGYTFSSYVIHWVRQAPGQGLEWMGYINPGNDVIKYNEKFKGRVTLTSDKSTSTAYMELSSLRSEDTAVYYCARESYSSYDGFAYWGQGTLVTVSS VL: EIVLTQSPDFQSVTPKEKVTITCSASSSVSYMHWYQQKPDQSPKRLIYDTSKLASGVPSRFSGSGSGTDFTLTINSLEAEDAATYYCQQWRSSPPTFGGGTKVEIK | 25.4 nM | 531 | – | 0.3 fold
hu40E9-L2H13 (antibody, V domains shown) VH: EVQLVQSGAEVKKPGSSVKVSCKASGYTFSSYVIHWVRQAPGQGLEWMGYINPYNDVIKYNEKFKGRVTLTSDKSTSTAYMELSSLRSEDTAVYYCARDGYYSYDGFAYWGQGTLVTVSS VL: EIVLTQSPDFQSVTPKEKVTITCSASSSVSYMHWYQQKPDQSPKRLIYDTSKLASGVPSRFSGSGSGTDFTLTINSLEAEDAATYYCQQWSSNPPTFGGGTKVEIK | 83.7 nM | 2050 | 3.08 fold | 0.51 fold
hu40E9-L2H10 (antibody, V domains shown) VH: EVQLVQSGAEVKKPGSSVKVSCKASGYTFSSYVIHWVRQAPGQGLEWMGYINPYNDVIKYNEKFKGRVTLTSDKSTSTAYMELSSLRSEDTAVYYCARDSYYSYEAFAYWGQGTLVTVSS VL: EIVLTQSPDFQSVTPKEKVTITCSASSSVSYMHWYQQKPDQSPKRLIYDTSKLASGVPSRFSGSGSGTDFTLTINSLEAEDAATYYCQQWSSNPPTFGGGTKVEIK | 2.55 nM | 1680 | 12.6 fold | 1.01 fold
hu40E9-L4H8 (antibody, V domains shown) VH: EVQLVQSGAEVKKPGSSVKVSCKASGYTFSSYVIHWVRQAPGQGLEWMGYINPGNDVIKYNEKFKGRVTLTSDKSTSTAYMELSSLRSEDTAVYYCARESYSSYDGFAYWGQGTLVTVSS VL: EIVLTQSPDFQSVTPKEKVTITCSASSSVSYMHWYQQKPDQSPKRLIYDTSKLASGVPSRFSGSGSGTDFTLTINSLEAEDAATYYCQQWRSRPPTFGGGTKVEIK | 26.9 nM | 255 | – | 0.32 fold
hu40E9-L4H3 (antibody, V domains shown) VH: EVQLVQSGAEVKKPGSSVKVSCKASGYTFSSYVIHWVRQAPGQGLEWMGYINPYNDVIKYNEKFKGRVTLTSDKSTSTAYMELSSLRSEDTAVYYCARDSYYSYDGFAYWGQGTLVTVSS VL: EIVLTQSPDFQSVTPKEKVTITCSASSSVSYMHWYQQKPDQSPKRLIYDTSKLASGVPSRFSGSGSGTDFTLTINSLEAEDAATYYCQQWRSRPPTFGGGTKVEIK | 1.59 nM | 2490 | 1.82 fold | 1.08 fold
hu40E9-L5H7 (antibody, V domains shown) VH: EVQLVQSGAEVKKPGSSVKVSCKASGYTFSSYVIHWVRQAPGQGLEWMGYINPGNGVIKYNEKFKGRVTLTSDKSTSTAYMELSSLRSEDTAVYYCARDSYSSYDGFAYWGQGTLVTVSS VL: EIVLTQSPDFQSVTPKEKVTITCSASSSVSYMHWYQQKPDQSPKRLIYDTSKLASGVPSRFSGSGSGTDFTLTINSLEAEDAATYYCQQWRSSPPTFGGGTKVEIK | 0.48 nM | 1850 | 3.41 fold | 1.15 fold
hu40E9-L2H11 (antibody, V domains shown) VH: EVQLVQSGAEVKKPGSSVKVSCKASGYTFSSYVIHWVRQAPGQGLEWMGYINPYNDVIKYNEKFKGRVTLTSDKSTSTAYMELSSLRSEDTAVYYCARDSYYSYRAFAYWGQGTLVTVSS VL: EIVLTQSPDFQSVTPKEKVTITCSASSSVSYMHWYQQKPDQSPKRLIYDTSKLASGVPSRFSGSGSGTDFTLTINSLEAEDAATYYCQQWSSNPPTFGGGTKVEIK | 5 nM | 2000 | 2.97 fold | 0.85 fold
